Measured values: publication doi:10.1101/2020.12.15.422856 (bioRxiv, 2020)

Molecular target: the molecule itself
Test: SEC

B1: Mer2 (wild-type, full-length) (natural protein)
chain: MVARGRTDEISTDVSEANSEHSLMITETSSPFRSIFSHSGKVANAGALEESDKQILEWAGKLELESMELRENSDKLIKVLNENSKTLCKSLNKFNQLLEQDAATNGNVKTLIKDLASQIENQLDKVSTAMLSKGDEKKTKSDSSYRQVLVEEISRYNSKITRHVTNKQHETEKSMRCTQEMLFNVGSQLEDVHKVLLSLSKDMHSLQTRQTALEMAFREKADHAYDRPDVSLNGTTLLHDMDEAHDKQRKKSVPPPRMMVTRSMKRRRSSSPTLSTSQNHNSEDNDDASHRLKRAARTIIPWEELRPDTLESEL
B1: binds.
